Here are results for four compounds from patent US10962518B2, “Dissolution test for sensitive drugs” (ROYAN INSTITUTE, priority 2017, dated 2021).

For data set [1] the following is noted: cited from earlier work; for tstability of drug: at 37° C.
Data set [2] can be described thus: hGH stability tests in phosphate buffer (0.01 ppm hGH solution, stability versus time). The format is physicochemical. Conditions: 0.01 ppm hGH in 0.05 M phosphate buffer pH=7.4. Here is the method:
In this example, exemplary systems and methods were used for performing dissolution tests on human growth hormone (hGH), consistent with an exemplary embodiment of the present disclosure. The release performance of hGH was evaluated for a 14-day period. First, the stability of hGH in a phosphate buffer at 37±1° C. was tested. To this end, a 0.01 ppm hGH solution in a 0.05 M phosphate buffer with a pH=7.4 was prepared. The prepared hGH solution was maintained at a temperature of approximately 37±1° C. and stability analyses were performed at 0, 1, 2, 3, 4, 6, 12, and 24 hours.
FIG. 4 illustrates an hGH stability versus time graph obtained from stability tests performed at 37±1° C., consistent with one or more exemplary embodiments of the present disclosure. […] Therefore, if a dissolution test was to be performed by available USP apparatuses, the hGH solution would have to be prepared, sampled and analyzed every 2 hours, which means for a dissolution evaluation that needs to be performed during a 14-day period, at least 168 dissolution tests must be performed.
The stability of hGH was then tested in a phosphate buffer at 5±2° C. To this end, a 0.01 ppm hGH solution in a 0.05 M phosphate buffer with a pH=7.4 was prepared. The prepared hGH solution was maintained at a temperature of approximately 5±2° C. and stability analyses were performed at 0, 1, 2, 3, 4, and 5 days. […]

Where two headings read alike, the source gives them in different places.

Consider `O=C1CN(/N=C/c2ccc(-c3ccc([N+](=O)[O-])cc3)o2)C(=O)[N-]1.[Na+]` [Dantrolene, dantrolene sodium], for which the tstability of drug in data set [1] (Buffer with pH 7.4) is 1 h. In addition, the “time for which the drug is stable in the dissolution medium” value in data set [1] (phosphate buffer with a pH of 7.4, approximately 37° C.) was 1 h.

As for `COc1ccc2[nH]c([S+]([O-])Cc3ncc(C)c(OC)c3C)nc2c1` (stereo not shown) [Omeprazole], the tstability of drug in data set [1] (phosphate buffer pH 7.5) is less than 10 h. Take “IGF-I: IGF-I, a drug listed in Table 2 with serum as its dissolution medium”: the tstability of drug in data set [1] (serum) is less than 10 h. For “hGH: human growth hormone (hGH), the temperature-sensitive drug used in the Example”, the “time for which the hGH solution is stable” value in data set [2] (5±2° C., analyses at 0-5 days (FIG. 5)) came to 1 days; in data set [2] (37±1° C., analyses at 0-24 hours (FIG. 4)), 0.083 days. The tstability of drug in data set [1] (PBS buffer pH = 7.4) is 1 h.
